The target in assay [1] is T1, PDL1 on A-375 melanoma cells, HCT-15 colorectal cancer cells and A549 lung cancer cells (UniProt Q9NZQ7 19-290, limits assumed).
T1 construct: whole, on cells
As to the kind of experiment: flow cytometry, A549 cells, MFI [panel B]. The gist of the method: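 Cells were blocked with goat serum at 4° C for 30 min, then incubated with serially diluted bispecific antibodies or hIgG1LALA control at 4° C for 30 min. Bound antibody was detected with Alexa-647 anti-human IgG (4° C, 30 min, dark) and read by flow cytometry.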
For orientation: In flow cytometry, cells or beads pass a laser one at a time.

For a further assay, the target named is T2, CD3E&D protein (UniProt P04234 22-105).
T2 construct: Purchased from Acro; also called CD3 E&D antigens; CD3E&D antigen protein
T2 sequence (chain, as listed by the source limits assumed, chain 1 of 2): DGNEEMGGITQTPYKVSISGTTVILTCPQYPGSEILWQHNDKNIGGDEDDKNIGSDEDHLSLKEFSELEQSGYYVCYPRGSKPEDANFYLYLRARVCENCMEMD
T2 sequence (P04234 22-105 limits assumed, chain 2 of 2): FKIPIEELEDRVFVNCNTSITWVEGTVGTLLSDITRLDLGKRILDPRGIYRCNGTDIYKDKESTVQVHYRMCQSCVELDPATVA
As to the kind of experiment: ELISA, coated CD3E&D protein, OD450 [panel B]. The text has this: In this example, the binding properties of the CD3×Trop2 and CD3×PDL1 bispecific antibody (the production method and the amino acid sequences of the heavy and light chains were shown in Example 1) were detected by using ELISA. The CD3E&D, Trop2, or PDL1 protein was coated onto 96-well plates by inventors, and the strength of the signal after the addition of the antibody was used to determine the binding properties of the antibody and the corresponding protein.
(1) CD3E&D protein (purchased from Acro) was diluted to 2 μg/ml with PBS buffer, added to a 96-well plate at a volume of 100 μL/well, and placed at 4° C. overnight. The PBS buffer in the 96-well plate was aspirated, and the plate was washed 6 times with PBST (pH 7.2 PBS containing 0.1% Tween 20) buffer. Then, 200 μL/well PBS/10% BSA was added and incubated at 37° C. for 2 h for blocking. The blocking solution was removed, and the plate was washed 6 times with PBST. Then, the to-be-tested bispecific antibodies serially diluted with PBST/0.05% BSA, Cross3×Trop2, Cross303×Trop2, Cross307×Trop2, Cross308×Trop2, Cross309×Trop2, Cross310×Trop2, Cross311×Trop2, Cross312×Trop2, Cross313×Trop2, Cross314×Trop2, Cross316×Trop2, Cross317×Trop2, Cross318×Trop2, Cross323×Trop2, Cross325×Trop2, Cross326×Trop2, Cross3×PDL1, Cross303×PDL1, Cross307×PDL1, Cross308×PDL1, Cross309×PDL1, Cross310×PDL1, Cross311×PDL1, Cross312×PDL1, Cross313×PDL1, Cross314×PDL1, Cross316×PDL1, Cross317×PDL1, Cross318×PDL1, Cross323×PDL1, Cross325×PDL1, Cross326×PDL1, and control IgG1LALA (purchased from Bio-Tech) were added at 100 μL/well, and incubated at 37° C. for 1 h. The reaction system was removed, and the plate was washed 6 times with PBST. Then, the cells were incubated at 37° C. for 1 h with HRP (horseradish peroxidase)-labeled anti-human secondary antibody (Fab specific) (purchased from Sigma) diluted with PBST/0.05% BSA at 100 μL/well. After the plate was washed six times with PBST, 80 μL/well TMB (tetramethylbenzidine) was added and incubated at room temperature for 3 min. […] The absorbance was read at 450 nm using a microplate reader.

The target in the next assay is T3, PDL1 protein (UniProt Q9NZQ7 19-238).
T3 construct: Bought recombinant protein
T3 sequence (Q9NZQ7 19-238 limits assumed): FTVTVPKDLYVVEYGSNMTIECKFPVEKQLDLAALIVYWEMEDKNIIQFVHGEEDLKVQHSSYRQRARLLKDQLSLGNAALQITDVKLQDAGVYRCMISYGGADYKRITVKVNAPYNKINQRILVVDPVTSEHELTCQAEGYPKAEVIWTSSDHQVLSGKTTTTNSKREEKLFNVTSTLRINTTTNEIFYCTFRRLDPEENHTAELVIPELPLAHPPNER
Briefly: ELISA, coated PDL1 protein, OD450 [panel B]. The protocol:
(3) PDL1 protein (purchased from Acro) was diluted to 2 μg/ml with PBS buffer, added to a 96-well plate at a volume of 100 μL/well, and placed at 4° C. overnight. The PBS buffer in the 96-well plate was aspirated, and the plate was washed 6 times with PBST (pH 7.2 PBS containing 0.10% Tween 20) buffer. Then, PBS/10% BSA was added at 200 μL/well and incubated at 37° C. for 2 h for blocking. The blocking solution was removed, and the plate was washed six times with PBST. Then, the to-be-tested bispecific antibodies serially diluted with PBST/0.05% BSA, Cross3×PDL1, Cross303×PDL1, Cross307×PDL1, Cross308×PDL1, Cross309×PDL1, Cross310×PDL1, Cross311×PDL1, Cross312×PDL1, Cross313×PDL1, Cross314×PDL1, Cross316×PDL1, Cross317×PDL1, Cross318×PDL1, Cross323×PDL1, Cross325×PDL1, Cross326×PDL1, and control IgG1LALA (purchased from Bio-Tech) were added at 100 μL/well, and incubated at 37° C. for 1 h. The reaction system was removed, and the plate was washed 6 times with PBST. Then, the cells were incubated at 37° C. for 1 h with HRP (horseradish peroxidase)-labeled anti-human secondary antibody (Fab specific) (purchased from Sigma) serially diluted with PBST/0.05% BSA at 100 μL/well. After the plate was washed six times with PBST, TMB (tetramethylbenzidine) was added at 80 μL/well and incubated at room temperature for 3 min. 4 M sulfuric acid was added at 80 μL/well to terminate the reaction. The absorbance was read at 450 nm using a microplate reader.
(In general: ELISA stands for enzyme-linked immunosorbent assay.)

T1 sequence (Q9NZQ7 19-290 limits assumed): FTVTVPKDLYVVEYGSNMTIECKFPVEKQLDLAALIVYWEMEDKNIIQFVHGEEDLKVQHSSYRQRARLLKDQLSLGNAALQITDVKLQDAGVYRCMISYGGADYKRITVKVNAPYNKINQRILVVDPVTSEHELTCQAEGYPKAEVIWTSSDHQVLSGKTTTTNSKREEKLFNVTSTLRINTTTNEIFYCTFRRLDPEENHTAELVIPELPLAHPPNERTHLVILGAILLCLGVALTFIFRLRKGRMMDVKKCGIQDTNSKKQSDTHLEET

B1: Cross318×PDL1 (bispecific antibody, human IgG1, kappa, L234A L235A)
scFv: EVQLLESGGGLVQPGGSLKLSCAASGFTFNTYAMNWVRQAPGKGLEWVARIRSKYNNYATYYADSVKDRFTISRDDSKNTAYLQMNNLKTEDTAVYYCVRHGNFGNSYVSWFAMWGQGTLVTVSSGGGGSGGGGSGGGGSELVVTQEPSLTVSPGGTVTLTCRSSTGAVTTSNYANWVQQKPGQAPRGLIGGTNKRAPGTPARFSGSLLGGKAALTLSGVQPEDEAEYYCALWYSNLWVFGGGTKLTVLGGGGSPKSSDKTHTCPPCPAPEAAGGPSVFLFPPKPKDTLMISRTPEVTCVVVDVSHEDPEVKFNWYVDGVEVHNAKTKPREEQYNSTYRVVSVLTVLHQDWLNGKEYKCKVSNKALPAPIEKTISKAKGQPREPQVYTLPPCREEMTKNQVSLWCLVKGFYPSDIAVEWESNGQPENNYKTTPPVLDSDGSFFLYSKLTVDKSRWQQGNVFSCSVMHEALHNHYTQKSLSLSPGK
heavy: QVQLVQSGAEVKKPGASVKVSCKASGYSFTGYYMHWVRQAPGQGLEWIGRINPYNGATTYSQNFKDRATMTVDTSISTAYMELSRLRSDDTAVYYCVPTGMGYFLMDYWGQGTLVTVSSASTKGPSVFPLAPSSKSTSGGTAALGCLVKDYFPEPVTVSWNSGALTSGVHTFPAVLQSSGLYSLSSVVTVPSSSLGTQTYICNVNHKPSNTKVDKKVEPKSCDKTHTCPPCPAPEAAGGPSVFLFPPKPKDTLMISRTPEVTCVVVDVSHEDPEVKFNWYVDGVEVHNAKTKPREEQYNSTYRVVSVLTVLHQDWLNGKEYKCKVSNKALPAPIEKTISKAKGQPREPQVCTLPPSREEMTKNQVSLSCAVKGFYPSDIAVEWESNGQPENNYKTTPPVLDSDGSFFLVSKLTVDKSRWQQGNVFSCSVMHEALHNHYTQKSLSLSPGK
light: DIQLTQSPSFLSASVGDRVTITCKASQDVGSAVVWYQQKPGKAPKLLIYWASTRHTGVPSRFSGSGSGTEFTLTISSLQPEDFATYFCQQFTSYPTFGQGTKLEIKRTVAAPSVFIFPPSDEQLKSGTASVVCLLNNFYPREAKVQWKVDNALQSGNSQESVTEQDSKDSTYSLSSTLTLSKADYEKHKVYACEVTHQGLSSPVTKSFNRGEC
Take B1: the concentration giving a half-maximal response (EC50 (read off the curve)) was approximately 1 µg/mL in assay [1], approximately 1 µg/mL in the assay with CD3E&D protein and approximately 0.2 µg/mL in the assay with PDL1 protein.

B2: Cross323×PDL1 (bispecific antibody, human IgG1, kappa, L234A L235A)
scFv: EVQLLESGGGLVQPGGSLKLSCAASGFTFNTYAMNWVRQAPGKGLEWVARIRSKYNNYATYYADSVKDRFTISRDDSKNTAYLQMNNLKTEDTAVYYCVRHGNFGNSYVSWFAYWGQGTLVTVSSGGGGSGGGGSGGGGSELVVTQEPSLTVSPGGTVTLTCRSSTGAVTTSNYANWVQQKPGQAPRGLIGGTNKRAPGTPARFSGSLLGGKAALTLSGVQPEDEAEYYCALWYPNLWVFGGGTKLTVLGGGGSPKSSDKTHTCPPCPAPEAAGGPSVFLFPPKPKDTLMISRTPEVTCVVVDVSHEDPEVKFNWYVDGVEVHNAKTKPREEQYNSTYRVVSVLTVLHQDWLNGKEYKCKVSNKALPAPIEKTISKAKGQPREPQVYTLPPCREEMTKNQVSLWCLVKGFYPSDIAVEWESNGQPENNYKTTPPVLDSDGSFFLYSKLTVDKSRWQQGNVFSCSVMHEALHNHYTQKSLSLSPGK
heavy: QVQLVQSGAEVKKPGASVKVSCKASGYSFTGYYMHWVRQAPGQGLEWIGRINPYNGATTYSQNFKDRATMTVDTSISTAYMELSRLRSDDTAVYYCVPTGMGYFLMDYWGQGTLVTVSSASTKGPSVFPLAPSSKSTSGGTAALGCLVKDYFPEPVTVSWNSGALTSGVHTFPAVLQSSGLYSLSSVVTVPSSSLGTQTYICNVNHKPSNTKVDKKVEPKSCDKTHTCPPCPAPEAAGGPSVFLFPPKPKDTLMISRTPEVTCVVVDVSHEDPEVKFNWYVDGVEVHNAKTKPREEQYNSTYRVVSVLTVLHQDWLNGKEYKCKVSNKALPAPIEKTISKAKGQPREPQVCTLPPSREEMTKNQVSLSCAVKGFYPSDIAVEWESNGQPENNYKTTPPVLDSDGSFFLVSKLTVDKSRWQQGNVFSCSVMHEALHNHYTQKSLSLSPGK
light: DIQLTQSPSFLSASVGDRVTITCKASQDVGSAVVWYQQKPGKAPKLLIYWASTRHTGVPSRFSGSGSGTEFTLTISSLQPEDFATYFCQQFTSYPTFGQGTKLEIKRTVAAPSVFIFPPSDEQLKSGTASVVCLLNNFYPREAKVQWKVDNALQSGNSQESVTEQDSKDSTYSLSSTLTLSKADYEKHKVYACEVTHQGLSSPVTKSFNRGEC
For the molecule B2, the figures for the “EC50 (read off the curve)” value with CD3E&D protein and in the assay with PDL1 protein were approximately 1 µg/mL and approximately 0.2 µg/mL, respectively.

By EC50 (read off the curve) is commonly meant the midpoint of the concentration-response curve. The low end stands for higher potency in that assay, the high end for lower potency in that assay.

These data come from patent publication US20260125472A1 (HEFEI TG IMMUNOPHARMA, published 2026).
